According to publication PMC13281853:

Target: ancGR2-LBD (ligand-binding domain of the ancestral glucocorticoid receptor 2), Dex-bound
Test: SPR

Substance: ancGR2-LBD (ligand-binding domain of the ancestral glucocorticoid receptor 2), Dex-bound (domain or fragment)
- Kd: 17.4 µM
